The source of these data is publication PMC7145681 (Nucleic Acids Research, 2019).

Substitutions are numbered along the chain they refer to. Names and notes keep the numbering of the source. Read-outs that look alike come from different tables or passages of the source.

What is called Kd is the concentration at which binding is half-saturated. In general, stoichiometry N refers to the number of molecules, sites or subunits per partner or assembly.

The target in data set [1] is T1, SP_0782 (Streptococcus pneumoniae, UniProt A0A0H2UPA7 7-79). In words: ITC. In general terms: ITC needs no label: the signal is the heat of the interaction.
The target in data set [2] is T1, SP_0782. In words: X-ray crystallography.
The target in data set [3] is T1, SP_0782. As to the kind of experiment: ITC. This is another data set of the same source.
The data set “SEC-MALS” deals with the molecule itself. As to the kind of experiment: SEC-MALS.

In the data set with SP_0782 [1], TTTTTTTTTTTT (ssDNA) [dT12] yielded a Kd of 0.0206 µM. In other words, the double-digit nanomolar range.
In the case of TCTTCC (ssDNA) [dTCTTCC], the binding result in the data set with SP_0782 [2] is reported as “binds”.
With TTTTTT (ssDNA) [dT6], the Kd with SP_0782 [3] amounted to 26.8 µM.

B1: SP_0782 (7–79) W30A mutant (domain or fragment, Streptococcus pneumoniae, UniProt A0A0H2UPA7 7-79, looked up)
chain: KKMAEFTFEIEEHLLTLSENEKGATKEINRVSFNGAPAKFDIRAWSPDHTKMGKGITLSNEEFQTMVDAFKGN
Regarding B1, in the data set “SEC-MALS”, the “stoichiometry N” value is 2.

B2: SP_0782 (7–79) wild-type from Streptococcus pneumoniae (domain or fragment, UniProt A0A0H2UPA7 7-79, looked up)
chain: B1 chain with A24W
With B2, the “stoichiometry N” value in “SEC-MALS” was 2.
